{"source": "patent US20220305056A1", "about": "(Janssen / Centocor, published 2022)", "binders": {"B1": {"name": "CEN-63-13 mAb (antibody, human IgG1, V domains shown)", "VH": "QSVKESGGRLVTPGTPLTLTCTVSGFSLSSNAIDWVRQAPGKGLEWIGILGRSGSTYYASWAKGRFTISRTSSTTVDLKITSPTTEDTATYFCARHFYLWGPGTLVTVSS", "VL": "AQVLTQTASPVSAAVGGTVTINCQASQSVYSNYLSWYQQKPGQPPKLLMATTSTLEPGVPSRFKGSGSGTQFTLTISDLECDDAATYYCAGGYSVDIWVFGGGTEVVVKR", "notes": "also called CEN-63 C13; CEN-63 C13 anti-G4S antibody"}}, "key": {"[1]": {"molecular_target": "T1, immobilized scFv containing a G4S linker", "T1 construct": "Antigen coated on the ELISA plate at 0.1 ug/mL", "assay": "ELISA, scFv coated on the plate, anti-human Fc HRP detection", "method": "MaxiSorb 96 plates (Nunc; Roskilde, Denmark) were coated with antigen at 0.1 μg/mL concentration and incubated overnight at 4° C. Plates were washed 3 times with PBS and blocked with PBS plus 5% milk powder for 1 hour at room temperature. Plates were washed 3 times with PBS. […] Plates were washed 3 times with PBS. […] Optical density at 450 nm was measured on (SpectraMax M5, Molecular Devices; San Jose, Calif.). Data was analyzed in GraphPad Prism software (Graphpad)."}, "[2]": {"molecular_target": "T2, (G4S)4 peptide (biotinylated)", "T2 construct": "Biotinylated peptide immobilised on streptavidin biosensors for BLI; also called WT (G4S)4 peptide linker; WT G4S linker", "T2 peptide": "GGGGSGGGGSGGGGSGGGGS", "assay": "bio-layer interferometry, biotinylated peptide on streptavidin sensor", "experimental": "(§1) All reactions were performed at 25° C. in 1× kinetics buffer (ForteBio; Fremont, Calif.). Data were collected with Octet Data Acquisition program (ForteBio) and analyzed using Octet Data Analysis program (ForteBio)."}, "[3]": {"molecular_target": "T3, cell-surface scFv with a G4S linker (CAR-T construct on transfected HEK293T cells)", "T3 construct": "also called cell surface antigen; linker containing scFv protein construct", "assay": "flow cytometry on HEK293T cells transfected with CAR-T constructs, fluorescent anti-human Fc detection", "method": "HEK293-T cells were cultured in standard DMEM with (Dulbecco's Modified Eagle's Medium Components comprising glucose, L-glutamine, NaHCO₃, and phenol red). Transfection of cells with mRNA for linker containing scFv protein constructs was carried out following manufacturer's protocol (MessengerMax, Invitrogen). 5 μg of IVT synthesized mRNA was transfected in HEK293-T cells at a density of 1×10⁶ cells/mL and incubated 24 hours prior to flow cytometry analysis. Cells were added to 96 well U bottom plates at a concentration of 100,000 cells/well. Plates were spun at 300 g for 3 minutes and supernatant was discarded. Sytox green (Invitrogen) Live/Dead stain was added to the cells and incubated for 10 minutes at room temperature in a dark chamber. The cells were washed twice with PBS, and the supernatant was discarded. A 12 point 1:3 serial dilution with a starting concentration of 100 nM of primary antibody was prepared. The dilution series was added to cells and incubated for 1 hour at 4° C. in the dark. Plates were spun at 300 g for 3 minutes, the supernatants discarded, and cells washed twice with FACS running buffer (Becton Dickinson (BD), Franklin Lakes, N.J.). Secondary antibody (Anti human Fc, Biolegend; San Diego, Calif.) was diluted in FACS buffer according to manufacturer's protocol. 50 μl of secondary antibody was added to the cells and incubated for 30 minutes at 4° C. in the dark. […]"}, "[4]": {"molecular_target": "T4, H3-23/L1-39 scFv with (G4S)4 peptide linker", "T4 construct": "also called inert scFv", "assay": "bio-layer interferometry"}, "[5]": {"molecular_target": "T1, immobilized scFv containing a G4S linker", "assay": "ELISA and flow cytometry (FIGS. 2 and 3)", "method": "Plates were washed 3 times with PBS. […] Plates were washed 3 times with PBS. […] Optical density at 450 nm was measured on (SpectraMax M5, Molecular Devices; San Jose, Calif.). Data was analyzed in GraphPad Prism software (Graphpad).\nHEK293-T cells were cultured in standard DMEM with (Dulbecco's Modified Eagle's Medium Components comprising glucose, L-glutamine, NaHCO₃, and phenol red). Transfection of cells with mRNA for linker containing scFv protein constructs was carried out following manufacturer's protocol (MessengerMax, Invitrogen). 5 μg of IVT synthesized mRNA was transfected in HEK293-T cells at a density of 1×10⁶ cells/mL and incubated 24 hours prior to flow cytometry analysis. Cells were added to 96 well U bottom plates at a concentration of 100,000 cells/well. Plates were spun at 300 g for 3 minutes and supernatant was discarded. Sytox green (Invitrogen) Live/Dead stain was added to the cells and incubated for 10 minutes at room temperature in a dark chamber. The cells were washed twice with PBS, and the supernatant was discarded. A 12 point 1:3 serial dilution with a starting concentration of 100 nM of primary antibody was prepared. The dilution series was added to cells and incubated for 1 hour at 4° C. in the dark. Plates were spun at 300 g for 3 minutes, the supernatants discarded, and cells washed twice with FACS running buffer (Becton Dickinson (BD), Franklin Lakes, N.J.). […]"}, "[6]": {"molecular_target": "T5, SEQ ID NO 46 (also: biotinylated)", "T5 construct": "Truncation variant of the (G4S)4 linker; also called truncated G4S peptide", "T5 peptide": "GGGGSGGGGSGGGGSGGGG", "assay": "bio-layer interferometry, truncated peptide panel", "experimental": "as §1"}, "[7]": {"molecular_target": "T6, SEQ ID NO 53 (not fully specified; also: biotinylated)", "T6 construct": "Truncation variant of the (G4S)4 linker; also called truncated G4S peptide", "T6 peptide": "GGGGSGGGGSGG", "assay": "bio-layer interferometry, truncated peptide panel", "experimental": "as §1"}, "[8]": {"molecular_target": "T7, 10-mer peptide (SEQ ID NO:55) (also: biotinylated)", "T7 construct": "Truncation variant of the (G4S)4 linker; smallest linker detected by CEN-63-13; also called smallest linker", "T7 peptide": "GGGGSGGGGS", "assay": "bio-layer interferometry, truncated peptide panel", "experimental": "as §1"}, "[9]": {"molecular_target": "T8, SEQ ID NO 47 (also: biotinylated)", "T8 construct": "Truncation variant of the (G4S)4 linker; also called truncated G4S peptide", "T8 peptide": "GGGGSGGGGSGGGGSGGG", "assay": "bio-layer interferometry, truncated peptide panel", "experimental": "as §1"}, "[10]": {"molecular_target": "T9, SEQ ID NO 49 (also: biotinylated)", "T9 construct": "Truncation variant of the (G4S)4 linker; also called truncated G4S peptide", "T9 peptide": "GGGGSGGGGSGGGGSG", "assay": "bio-layer interferometry, truncated peptide panel", "experimental": "as §1"}, "[11]": {"molecular_target": "T10, SEQ ID NO 52 (also: biotinylated)", "T10 construct": "Truncation variant of the (G4S)4 linker; also called truncated G4S peptide", "T10 peptide": "GGGGSGGGGSGGG", "assay": "bio-layer interferometry, truncated peptide panel", "experimental": "as §1"}, "[12]": {"molecular_target": "T11, SEQ ID NO 50 (not fully specified; also: biotinylated)", "T11 construct": "Truncation variant of the (G4S)4 linker; also called truncated G4S peptide; L6", "T11 peptide": "GGGGSGGGGSGGGGS", "assay": "bio-layer interferometry, truncated peptide panel", "experimental": "as §1"}, "[13]": {"molecular_target": "T12, SEQ ID NO 48 (also: biotinylated)", "T12 construct": "Truncation variant of the (G4S)4 linker; also called truncated G4S peptide", "T12 peptide": "GGGGSGGGGSGGGGSGG", "assay": "bio-layer interferometry, truncated peptide panel", "experimental": "as §1"}, "[14]": {"molecular_target": "T13, SEQ ID NO 51 (also: biotinylated)", "T13 construct": "Truncation variant of the (G4S)4 linker; also called truncated G4S peptide", "T13 peptide": "GGGGSGGGGSGGGG", "assay": "bio-layer interferometry, truncated peptide panel", "experimental": "as §1"}}, "note": "Ends that are not written are not given here.", "data": [{"binder": "B1", "values": [{"measurement": "EC50", "setting": "[1]", "result": 570, "unit": "pM"}, {"measurement": "Kd", "setting": "[2]", "result": 3600, "unit": "pM"}, {"measurement": "EC50", "setting": "[3]", "result": 780, "unit": "pM"}, {"measurement": "Kd", "setting": "[4]", "result": 8100, "unit": "pM"}, {"measurement": "Kd", "setting": "[5]", "result": 570, "unit": "pM"}, {"measurement": "fold decrease in binding affinity compared to WT G4S linker", "setting": "[6]", "result": 2, "unit": "fold"}, {"measurement": "fold decrease in binding affinity compared to WT G4S linker", "setting": "[7]", "result": 2, "unit": "fold"}, {"measurement": "fold decrease in binding affinity compared to WT G4S linker", "setting": "[8]", "result": 6, "unit": "fold"}, {"measurement": "fold decrease in binding affinity compared to WT G4S linker", "setting": "[9]", "result": 2, "unit": "fold"}, {"measurement": "fold decrease in binding affinity compared to WT G4S linker", "setting": "[10]", "result": 2, "unit": "fold"}, {"measurement": "fold decrease in binding affinity compared to WT G4S linker", "setting": "[11]", "result": 2, "unit": "fold"}, {"measurement": "fold decrease in binding affinity compared to WT G4S linker", "setting": "[12]", "result": 2, "unit": "fold"}, {"measurement": "fold decrease in binding affinity compared to WT G4S linker", "setting": "[13]", "result": 2, "unit": "fold"}, {"measurement": "fold decrease in binding affinity compared to WT G4S linker", "setting": "[14]", "result": 2, "unit": "fold"}]}]}
